test: soluble on expression in E. coli; label from the status in PepcDB or PDB records

Soluble on expression in E. coli, soluble:
SMTIGRAKVYATLSKIFYHLFYDEAIPKDCREIIEKFGEIDFNLRSVLVRELRGSVLIKDMPQSLAEVYESVMKDFYERYGFQASELHADHIAVELAFMSKLVEREISLAQQMKEEELYKIRAAQHRFIKAHLQPLVKNLPSAPLLNFVRDFVREDAKYLYSSLVGEKNEGADNN, SMTTTTTTISQHNFYGAGDSETCISIIENLKEEYGLFVWPCSVILAEYVWQHRSRFRDSSILELGAGTSLPGLVAAKVGANVTLTDDATKPEVLDNMRRVCELNKLNCNVLGLTWGVWDAPILDLRPNIILGADVLYDSSGSFHLFLFWVLAFSFSPCE, SNAAEHVRLATTTSTYHSGLLDYLLPQFEKDTGYKVDVIAAGTGKALKMGENGDVDLVMTHAPKAEGTFVEKGYGVLPRKLMYNDFVIVGPKADPAKIKDDESVLDVFKEIANKNATFISRGDDSGTHKKEMGFWAQTKIEPNFGGYRSVGQGMGPTLNMASEMQGYTMSDRGTWLAYQNKLDLEILFQGDEKLFNPYQVILVNPERYPTINYQGAKAFSDWLVNPRGQELINGFRL, SNAKIGVLQFVSHPSLDLIYKGIQDGLAEEGYKDDQVKIDFMNSEGDQSKVATMSKQLVANGNDLVVGIATPAAQGLASATKDLPVIMAAITDPIGANLVKDLKKPGGNVTGVSDHNPAQQQVELIKALTPNVKTIGALYSSSEDNSKTQVEEFKAYAEKAGLTVETFAVPSTNEIASTVTVMTSKVDAIWVPIDNTIASGFPTVVSSNQSSKKPIYPSATAMVEVGGLASVVIDQHDLGVATGKMIVQVLKGAKPADTPVNVFSTGKSVINKKIAQELGITIPESVLKEAGQVI, SNAMANTSSDWAGAPQNASADGEFVRDTNYIDDRIVADVPAGSEPIAQEDGTFHWPVEAGRYRLVAARACPWAHRTVITRRLLGLENVISLGLTGPTHDVRSWTFDLDPNHLDPVLQIPRLQDAYFNRFPDYPRGITVPALVEESSKKVVTNDYPSITIDFNLEWKQFHREGAPNLYPAELREEMAPVMKRIFTEVNNGVYRTGFAGSQEAHNEAYKRLWVALDWLEDRLSTRRYLMGDHITEADIRLYPTLVRFDAVYHGHFKCGRNKITEMPNLWGYLRDLFQTPGFGDTTDFTEIKQHYYITHAEINPTRIVPVGPDLSGFATPHGREKLGGSPFAEGVTLPGPIPAGEEVKNPEPFQK, SNAMATFMTEDFLLKNDIARTLYHKYAAPMPIYDFHCHLSPQEIADDRRFDNLGQIWLEGDHYKWRALRSAGVDESLITGKETSDYEKYMAWANTVPKTLGNPLYHWTHLELRRPFGITGTLFGPDTAESIWTQCNEKLATPAFSARGIMQQMNVRMVGTTDDPIDSLEYHRQIAADDSIDIEVAPSWRPDKVFKIELDGFVDYLRKLEAAADVSITRFDDLRQALTRRLDHFAACGCRASDHGIETLRFAPVPDDAQLDAILGKRLAGETLSELEIAQFTTAVLVWLGRQYAARGWVMQLHIGAIRNNNTRMFRLLGPDTGFDSIGDNNISWALSRLLDSMDVTNELPKTILYCLNPRDNEVLATMIGNFQGPGIAGKVQFGSGWWFNDQKDGMLRQLEQLSQMGLLSQFVGMLTDSRSFLSYTRHEYFRRILCNLLGQWAQDGEIPDDEAMLSRMVQDICFNNAQRYFTIK, SNAMKEKVVIITGGSSGMGKGMATRFAKEGARVVITGRTKEKLEEAKLEIEQFPGQILTVQMDVRNTDDIQKMIEQIDEKFGRIDILINNAAGNFICPAEDLSVNGWNSVINIVLNGTFYCSQAIGKYWIEKGIKGNIINMVATYAWDAGPGVIHSAAAKAGVLAMTKTLAVEWGRKYGIRVNAIAPGPIERTGGADKLWISEEMAKRTIQSVPLGRLGTPEEIAGLAYYLCSDEAAYINGTCMTMDGGQHLHQYPF, SNAMKFSEFRYERPDIAQLQASFQEALDSFRRAGSAALQHEAMKRINELRRRYSTMANLCHIRHTIDTNDEFYKKEQDFFDETEPVVKGLVNDYYRALVSSPFRAELEQVWGKQLFALAETQLKTYAPVIVEDLQKENKLASEYTKLIASAKIMFEGEERTLAQLQPFVESPDRAMRQRASEARFSFFKDYEKELDELYDELVHVRTAIARKLGFQNFVELGYARLGRTDYNADMVAGYRRQVKTHIVPLAAKLRERQRQRIQVEKLYYYDEPFMFPTGNPTPKGDADWIVQNGRQMYEELSPETGEFFRYMVEHELMDLVAKKGKAGGGYCTYIDDYKAPFIFSNFTGTSGDIDVLTHEAGHAFQVYESRHYDIPEYNWPTLEACEIHSMSMEFFTWPWMELFFGEDADKYRFAHLSDALLFLPYGVAVDEFQHAVYENPDMTPAERKSVWRNIEKAYLPTRDYADHDYLERGGFWQRQGHIYTDPFYYIDYTLAQVCAFQFWKRAQEDRASAWRDYVALCRLGGSRPFTELVKSANLQSPFADGAVASVVGHIERWLDSVDDKAL, SNAMKNYTLISPCFFGMEKMLAREITNLGYEIIKTEDGRITYKTDEFGIAKSNMWLRCAERVHLKIAEFEAKSFDELFENTKRINWSRYIPYGAQFPISKASSIKSKLYSTPDVQAIVKKAIVESLKKSYLEDGLLKEDKEKYPIFVFIHKDKVTISIDTTGDALHKRGYREKANKAPIRETLAAGLIYLTPWKAGRVLVDPMCGSGTILIEAAMIGINMAPGLNREFISEKWRTLDKKIWWDVRKDAFNKIDNESKFKIYGYDIDEESIDIARENAEIAGVDEYIEFNVGDATQFKSEDEFGFIITNPPYGERLEDKDSVKQLYKELGYAFRKLKNWSYYLITSYEDFEYEFGQKADKKRKLYNGMLKTNFFQYPGPKPPRNNK, SNAMKQLSGLLGELRQKLCAGFPEQAGIQQLIFPAPGLVGRQLLEWLTAQTHFPQFYWRHRDNHEEAAVCGQTRSFADMKDADDFIQQNPDANGLRIWGLNAFEPVMVFGQLTDNGLVSGKNAQASFLFLPRLEILRRGKKTSLTLNLSSETSLQKDALQAITFIDQLMAARALPVLNARIQHSSHTPGYPQWRNLIQQALNDIEQQKLDKVVLARTTTLTLNKPLSCAAFMAASRQVNHRCYHFMLRFDDRQAFLGSSPERLYLRQQLHLETEALAGTVSNLDSDPQAAVLADWLMHDEKNQRENLLVVDDICQRLQGGVTAVDVMPPEIIRLRKVQHLRRRICAQLSRASDTDCLQRLQPTAAVAGLPREAARQFIAKHELFSRGWYAGSAGYLSLKRTEFSVALRSARVDGQQIHLYAGAGIVAGSDAEQEWQEIDNKSAGLQSLLEHEAQPVKA, SNAMMIKASTNEFRFCFKQMNKSQHELVLGWIHQPHINEWLHGDGLSNTIKDLHEFLNDGKPWATHWIAYDNEIPFAYLITSEIEKSEEYPDGAVTLDLFICRLDYIGKGLSVQMIHEFILSQFSDTKIVLINPEISNERAVHVYKKAGFEIIGEFIASWHPVPHYKMKLCIEDLKKQRLSA, SNAMNDIVASTQLPNTIKTITNDLRKLGLKKGMTVIVHSSLSSIGWISGGAVAVVEALMEVITEEGTIIMPTQSSDLSDPKHWSRPPVPEEWWQIIRDNVPAFEPHITPTRAMGKVVECFRTYPNVVRSNHPLGSFAAWGRHAEEITVNQSLSMSLGEESPLRKIYDLDGYILLIGVGYDSNTSVALSEVRSGACELIKVGAPIIENGERVWKEFVDMDYDSDKFVEIGVEFEQKGTVTMGKIGNAKCRLMKQRDIVDFGTEWFRKKN, SNAMPLPKSLKYGDTIGIYSPSSPVTYTSPKRFERAKSYLLQKGFHILEGSLTGRYDYYRSGSIQERAKELNALIRNPNVSCIMSTIGGMNSNSLLPYIDYDAFQNNPKIMIGYSDATALLLGIYAKTGIPTFYGPALVPSFGEFEPFVDDTYKYFLETLLHDQALPYNIKQPLFWSDEFINWEEKTKEKELRPNNWISVTNGQATGRVIGGNLNTIQGIWGSPYMPCIQEGDILFIEDSSKDAATIERSFSFLKINGVFDKVSGIILGKHEQFDDCGTNRKPYEILLEVLQNQRIPLLADFDCCHTHPMITMPIGVQVKMDATNKTIHILEKWKI, SNAMSSEELEQVWSNIKSEARALAECEPMLASFFHATLLKHENLGSALSYILANKLANPIMPAIAIREVVEEAYRSDAHMIVSAARDILAVRLRDPAVDKYSTPLLYLKGFHALQAYRIGHWLWAQDRKALAIYLQNQVSVAFGVDIHPAATIGCGIMLDHATGIVIGETAVVENDVSILQSVTLGGTGKTSGDRHPKIREGVMIGAGAKILGNIEVGRGAKIGAGSVVLQSVPAHTTAAGVPARIVGKPESDKPSLDMDQHFNGSIQGFEYGDGI, SNAMSVIKIEKALKLDKVIFVDVRTEGEYEEDHILNAINMPLFKNNEHNEVGTIYKMQGKHEAIQKGFDYVSYKLKDIYLQAAELALNYDNIVIYCARGGMRSGSIVNLLSSLGVNVYQLEGGYKAYRNFVLEY, SNAMSVQLVKGVNLHVIPTEKYKTVRLLVRFNTRLNHETITKRTLLSSLMETNSLNYPNQVKLSERLAELYGASFGIGVSKKGNQHWFNISMNIVNDHYLQDSQVLAEAVDFLKEIIFAPNIQAGQFEAETFQREKENLKAYLESIVEDKQTYASLALQSVYFNQSEDQKIPSFGTVAALAEETAASLAAYYQKMLAEDQVDIFVLGDVNEAELVPLFKQLPFTPREEGKAAIFYNQPIRNVIEERTEREVLAQSKLNLAYNTDIYYGDSYYFALQVFNGIFGGFPHSKLFMNVREKEHLAYYASSSIDTFRGFMTVQTGIDGKNRNQVLRLISTELENIRLGKIRELEIEQTKAMLKNQYILALDNAGAWLEKEYLNELMPQTMLTAEEWIARINAVTIPEIQEVAKRLELQAIFFLEGETEND, SNAMTLTALNAISPIDGRYVNKTRALSPYFSEFALTYYRLMVEIKWFESLAANDTIPEVPALDNKARKFLSDLISNFNESEAEKIKEFEKQTNHDVKAVEYYLQDKFQENEQLKSCVAFIHFACTSEDINNLAYALMIKQAIAQVIQPTIAEIMGSITLLGKQHADVAMLSRTHGQPATPTTMGKELVNFVARLKRPQQQLAEVLIPAKFNGAVGNYNAHVAAYPEVDWRKHCANFVTSLGLSFNAYTTQIEPHDGIAEVSQIMVRINNILLDYTQDIWSYISLGYFKQKTIAEEVGSSTMPHKVNPIDFENAEGNLGLSNALFIHFANKLTQSRMQRDLSDSTVLRNLGVAFSYSLIAYHSVAKGNDKLQINKSALQKDLSENWEVLAEAIQTVMRRYNEPNAYEQLKELTRGQMIDAENLKKFIKTLSIPEEAKAELMKLTPETYTGLATQLVKAFS, SNANFNRFTQRAKKAIDLAFESAKSLGHNIVGSEHILLGLLREEEGIAAKVLSKVGFTEAYLEGKIVDMEGKGEEISEDIVLSPRSKQILELSGMFANKLKTNYIGTEHILLAIIQEGEGIANKILNYAGVNDRTLAQLTIDMMG, SNASGQQVHRLLGNKLELASTGQTIYHQDINLNNHPWIGDHRVYDTPVIPGVSYIAMTLAAVGVPAAVEDINFQQPLFLAESNTTRETQLMLHTADNVGKQFVEVFSRDGAKQEEWQQHASMSVSENPPPPPTLSVDIPALCEQLRPLDTDTLTEIYASISLVYGPMLQAVRQAWIGEETSLLEIEVPKALAFQLAGEPIHPVLIDACTRLTPDLFDFSSDSGVFWAPWRVKEMTLSHPTPSRFYAYVEEPSRVNEQLQTRSYDIQLLDETGQAFGRINGFTVKRAPSQLFLK
